Article PMC8338941, “Puf6 primes 60S pre-ribosome nuclear export at low temperature”

Columns and labels:
[1] = biological target: T1, Puf6-PUM (Saccharomyces cerevisiae, UniProt Q04373 161-656); experiment: fluorescence anisotropy; buffer promoting tertiary contact; Anisotropy: 2.5 nM Cy5-RNA, 0.16 nM-20 uM protein, 27 C (stated for H68), buffer composition not in the material; FRET: 20 mM HEPES pH 7.4, 100 mM K+ (116 mM KCl in the supplement), 0-100 mM Mg2+; conditions: protein: recombinant; (pET47-Puf6 (161-656)); label: Cy5 (sCy5; sCy3 in the FRET construct); three hairpins, H22-H88 kissing loop, GAAA tetraloop docking
[2] = biological target: T1, Puf6-PUM; experiment: fluorescence anisotropy; 27 C; buffer promoting tertiary contact; Anisotropy: 2.5 nM Cy5-RNA, 0.16 nM-20 uM protein, 27 C (stated for H68), buffer composition not in the material; FRET: 20 mM HEPES pH 7.4, 100 mM K+ (116 mM KCl in the supplement), 0-100 mM Mg2+; conditions: protein: recombinant; (pET47-Puf6 (161-656)); label: Cy5 (sCy5); hairpin with GAAA tetraloop

T1 sequence (Q04373 161-656): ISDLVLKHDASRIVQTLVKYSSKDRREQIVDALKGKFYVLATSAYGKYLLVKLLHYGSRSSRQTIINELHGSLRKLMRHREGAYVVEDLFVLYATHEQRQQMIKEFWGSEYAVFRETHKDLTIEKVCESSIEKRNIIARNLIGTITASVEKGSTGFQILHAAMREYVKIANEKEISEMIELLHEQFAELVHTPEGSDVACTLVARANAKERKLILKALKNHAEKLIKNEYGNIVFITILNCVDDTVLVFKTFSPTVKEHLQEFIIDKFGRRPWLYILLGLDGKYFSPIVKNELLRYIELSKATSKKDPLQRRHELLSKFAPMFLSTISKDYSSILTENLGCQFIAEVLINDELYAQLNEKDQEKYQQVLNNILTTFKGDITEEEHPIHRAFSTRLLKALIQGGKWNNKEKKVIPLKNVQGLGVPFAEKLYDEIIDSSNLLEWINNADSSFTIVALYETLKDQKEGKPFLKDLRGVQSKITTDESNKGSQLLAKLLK

B1: KL-TLGAAA (H68-H88-H22 RNA), Cy5 (structured_RNA)
RNA: UGAAGAAAUUCAAAAAAAAAGCUCGGAAUUUGAGCAAAAAAAAAAAACGGUGGUAAAUUCCAUCG
- Kd [1]: ~0.125 µM

Binder: UGAAGAAAUUCA (structured_RNA) [H68 RNA]
- Kd [2]: ~10 µM
